From article PMC10968383 (Bioengineering, 2024) come the findings set out here.

In test [1] the target is T1, full-length PrPc displayed on 293T cells (293T-PrPc) (Homo sapiens (Human)., UniProt P04156).
In test [2] the target is PrPc-35aa (Homo sapiens (Human).). The test can be described thus: BLI. The conditions noted are these: both partners purified.
Test [3] deals with T1, full-length PrPc displayed on 293T …. In words: Western blotting. The conditions noted are these: one partner purified.

Changes are numbered by the printed parent chain.

B1: HAb 6b (antibody, V domains shown)
VH: EVQLVQSGAEVKKPGATVKMSCKASGYTFTDYYMKWVKQAPGKGLEWIGDINPNNGDTFYNEKFQGRATLTVDKSTNTAYMELSSLRSEDTAVYYCAKPGRTYWGQGTLVTVS
VL: DIVLTQSPDSLAVSLGERVTMSCKSSQSLLDSGNQKNYLVWYQQKPGQPPKLLIYGASTRESGVPDRFSGSGSGTDFTLTISSVQAEDVAVYYCQNDHSYPLTFGAGTKLELK
Regarding B1, the binding result in test [1] is “binds”.

B2: Clone 6 (antibody, V domains shown)
VH: EVQLQQSGPELVKPGASVKMSCKASGYTFTDYYMKWVKQSHGKSLEWIGDINPNNGDTFYNQKFKGKATLTVDKSSNTAYMQLNSLTSEDSAVYYCAKPGRTYWGQGTLVTVS
VL: B1 VL with D9S, A12S, L15A, R18K, S69T, A86P, V89L
notes: also called murine anti-PrPc antibody Clone 6; full-length Clone 6 antibody; source: 293F cells, purified with protein A column
The Kd is the free concentration of one partner at which half of the binding sites on the other are occupied at equilibrium, for simple one-to-one binding. A lower Kd goes with higher affinity. With B2, the affinity in test [2], expressed as Kd, was 0.314 nM.

B3: 4AA (antibody, V domains shown)
VH: EVQLVQSGAEVKKPGDTVKMSCKASGYTFTDYYMKWVKQAPGKAPGKSLEWIGDINPNNGDTFYNQKFQGRATLTVDKSSNTAYMELSSLRSEDTAVYYCVKPGRTYWGQGTLVTVS
VL: B1 VL with S69T
notes: IgG1
In test [2], B3 displayed a Kd of 0.281 nM.

B4: 4AA-m (antibody, V domains shown)
VH: B3 VH
VL: B1 VL with S69T
notes: also called recombinant 4AA-m; source: 293F cells, purified with protein A column (said of the antibodies in general)
For the molecule B4, in test [3], the “Western blot signal on the 5 μg lysate, fold of that with 3F4” value stood at 3 fold and the “Western blot signal on the 5 μg lysate, fold of that with 8H4” value worked out at 9 fold.

B5: HAb 6c (antibody, V domains shown)
VH: B1 VH with M20I, K38Q, I48M, D50L, I51V, A68V, L70I, K98T
VL: B1 VL with V19A, M21I, V84L
Turning to B5, the binding result in test [1] was “binds”.

B6: HAb 6 (antibody, V domains shown)
VH: B1 VH with G44S, E62Q, T76S
VL: B1 VL with S69T
notes: IgG1; also called humanized antibody HAb 6; wild-type antibody; source: 293F cells, purified with protein A column
Take B6: the equilibrium dissociation constant (Kd) in test [2] worked out at 2.92 nM.
